Reference: US20180185504A1 (Regeneron, published 2018)

Columns and labels:
[1] = molecular target: T1, dimeric form of human PRLR (Example 12 ELISA) (human); test: blocking ELISA: 10 nM dimeric human PRLR premixed with mAb (520 pM to 30 nM), plate-coated human PRL
T1 construct: PRLR'
T1 sequence (P16471 whole entry, looked up): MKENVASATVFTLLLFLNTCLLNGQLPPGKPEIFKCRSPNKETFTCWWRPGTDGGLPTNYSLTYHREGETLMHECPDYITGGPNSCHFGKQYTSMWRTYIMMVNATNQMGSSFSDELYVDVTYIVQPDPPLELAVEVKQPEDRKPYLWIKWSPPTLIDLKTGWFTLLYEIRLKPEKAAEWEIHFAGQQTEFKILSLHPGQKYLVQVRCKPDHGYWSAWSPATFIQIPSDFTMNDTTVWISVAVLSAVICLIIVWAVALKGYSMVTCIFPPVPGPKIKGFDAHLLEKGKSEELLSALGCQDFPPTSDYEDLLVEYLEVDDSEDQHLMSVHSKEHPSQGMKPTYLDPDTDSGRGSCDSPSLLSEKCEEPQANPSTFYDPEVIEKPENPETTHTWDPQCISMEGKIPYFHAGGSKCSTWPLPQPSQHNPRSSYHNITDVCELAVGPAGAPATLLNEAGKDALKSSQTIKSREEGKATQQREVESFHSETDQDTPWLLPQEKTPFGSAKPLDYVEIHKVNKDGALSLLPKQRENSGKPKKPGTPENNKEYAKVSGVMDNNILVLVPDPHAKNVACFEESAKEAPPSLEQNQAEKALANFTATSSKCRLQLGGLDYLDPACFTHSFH
Procedure: (§1) Dimeric forms of human or cynomolgus monkey (Macaca fascicularis) PRLR and monomeric human PRL were used in this assay. […] After 1-hour incubation, captured PRLR was detected with HRP-conjugated goat anti-Fcγ antibody and visualized with TMB colorimetric substrate by measuring absorbance at 450 nm. […] Mixtures were then added to plates coated with in 1 μg/mL PRL and captured PRLR was detected as described above. Data were analyzed using a four-parameter logistic equation over an 11-point response curve in GraphPad Prism software and IC₅₀ values were calculated.

[2] = molecular target: T2, hPRLR-mmH (recombinant extracellular domain of hPRLR with a C-terminal myc-myc-hexahistidine tag) (human); test: H/D exchange MS; hPRLR-mmH bound to H1H6958N2 on NHS agarose beads
T2 construct: the entry includes the myc-myc-His6 tag; also called truncated form of PRLR
T2 chain: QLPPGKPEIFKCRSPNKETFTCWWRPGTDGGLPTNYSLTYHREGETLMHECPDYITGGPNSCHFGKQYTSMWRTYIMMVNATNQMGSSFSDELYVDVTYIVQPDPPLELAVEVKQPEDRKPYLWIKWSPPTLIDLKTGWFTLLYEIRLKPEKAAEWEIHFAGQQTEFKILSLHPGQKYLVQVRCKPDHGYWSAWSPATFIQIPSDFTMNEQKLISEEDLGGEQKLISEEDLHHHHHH

[3] = molecular target: T3, dimeric form of cynomolgus monkey (Macaca fascicularis) PRLR (Example 12 ELISA) (cynomolgus monkey (Macaca fascicularis)); test: blocking ELISA: 10 nM dimeric monkey PRLR premixed with mAb (520 pM to 30 nM), plate-coated human PRL
T3 construct: also called monkey PRLR
Procedure: as §1

[4] = molecular target: T4, human prolactin receptor (PRLR) on cells (human, UniProt P16471 25-622); test: cell-based or functional assay
T4 sequence: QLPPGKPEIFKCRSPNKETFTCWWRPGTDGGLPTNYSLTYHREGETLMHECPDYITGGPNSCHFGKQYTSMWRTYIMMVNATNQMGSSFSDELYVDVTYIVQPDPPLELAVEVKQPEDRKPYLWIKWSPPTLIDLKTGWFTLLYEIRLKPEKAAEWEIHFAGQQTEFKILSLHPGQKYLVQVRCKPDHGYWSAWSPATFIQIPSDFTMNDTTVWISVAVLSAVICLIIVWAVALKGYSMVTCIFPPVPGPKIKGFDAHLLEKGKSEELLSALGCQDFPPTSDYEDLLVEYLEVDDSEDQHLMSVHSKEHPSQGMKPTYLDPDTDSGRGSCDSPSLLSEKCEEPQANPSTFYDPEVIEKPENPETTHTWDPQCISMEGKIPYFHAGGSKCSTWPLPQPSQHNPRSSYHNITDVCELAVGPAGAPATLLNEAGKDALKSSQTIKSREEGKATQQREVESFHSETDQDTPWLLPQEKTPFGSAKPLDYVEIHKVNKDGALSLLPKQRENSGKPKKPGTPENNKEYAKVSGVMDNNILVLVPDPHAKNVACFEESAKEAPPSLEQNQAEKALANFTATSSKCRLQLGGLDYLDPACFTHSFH

[5] = molecular target: T5, mouse PRLR with an HA tag on HEK293 cells (mouse, UniProt Q08501 20-608); test: FACS on HEK293/mPRLR cells
T5 construct: whole, on cells; also called HEK293/mPRLR; rodent PRLR; not shown: HA tag
T5 sequence (looked up): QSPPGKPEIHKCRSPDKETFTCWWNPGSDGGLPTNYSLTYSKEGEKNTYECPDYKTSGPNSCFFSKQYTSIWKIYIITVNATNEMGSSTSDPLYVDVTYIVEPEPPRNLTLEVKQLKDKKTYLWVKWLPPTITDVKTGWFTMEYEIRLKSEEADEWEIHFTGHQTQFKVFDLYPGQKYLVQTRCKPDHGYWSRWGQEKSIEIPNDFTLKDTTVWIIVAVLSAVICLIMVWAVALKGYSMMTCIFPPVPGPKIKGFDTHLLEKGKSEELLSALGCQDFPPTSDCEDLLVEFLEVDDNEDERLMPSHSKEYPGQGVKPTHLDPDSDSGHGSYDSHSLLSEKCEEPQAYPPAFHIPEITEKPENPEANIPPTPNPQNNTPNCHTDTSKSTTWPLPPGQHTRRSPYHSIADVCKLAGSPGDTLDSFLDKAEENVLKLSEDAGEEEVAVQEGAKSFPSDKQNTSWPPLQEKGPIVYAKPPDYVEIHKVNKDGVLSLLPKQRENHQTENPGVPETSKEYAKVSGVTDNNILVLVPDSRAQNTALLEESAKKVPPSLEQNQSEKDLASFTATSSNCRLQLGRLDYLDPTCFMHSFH

[6] = molecular target: T6, hPRLR-mmH (recombinant extracellular domain of hPRLR with a C-terminal myc-myc-hexahistidine tag) (human); test: H/D exchange; hPRLR-mmH captured on H1H6958N2 agarose beads
T6 construct: also called truncated form of PRLR
T6 chain: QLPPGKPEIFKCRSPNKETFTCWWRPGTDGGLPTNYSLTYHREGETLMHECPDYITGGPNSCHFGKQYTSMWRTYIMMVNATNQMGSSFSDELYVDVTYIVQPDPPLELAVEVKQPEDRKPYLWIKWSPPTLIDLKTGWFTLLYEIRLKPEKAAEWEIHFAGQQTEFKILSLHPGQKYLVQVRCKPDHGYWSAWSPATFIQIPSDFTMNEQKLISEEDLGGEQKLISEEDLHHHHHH

[7] = molecular target: T7, IL-6R (human, UniProt P08887 20-468); test: flow cytometry, anti-IL-6R antibody on KG-1 cells (endogenous IL-6R), PE anti-human secondary
T7 construct: whole, on cells
T7 sequence (looked up): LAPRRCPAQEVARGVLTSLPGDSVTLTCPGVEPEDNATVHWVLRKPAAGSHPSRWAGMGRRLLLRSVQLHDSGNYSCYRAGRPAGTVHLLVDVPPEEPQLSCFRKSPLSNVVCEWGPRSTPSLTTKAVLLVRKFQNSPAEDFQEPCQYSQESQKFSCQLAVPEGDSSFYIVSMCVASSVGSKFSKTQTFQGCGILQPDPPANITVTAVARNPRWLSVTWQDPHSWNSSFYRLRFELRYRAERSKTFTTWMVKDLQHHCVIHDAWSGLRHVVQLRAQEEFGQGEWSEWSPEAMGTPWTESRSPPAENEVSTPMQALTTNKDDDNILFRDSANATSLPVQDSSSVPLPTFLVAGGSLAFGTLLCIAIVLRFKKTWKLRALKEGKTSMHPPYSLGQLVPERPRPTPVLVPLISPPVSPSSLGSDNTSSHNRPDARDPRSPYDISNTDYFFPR

B1: H1H6958N2 (antibody, human IgG1, V domains shown)
VH: QVQLVESGGGVVQPGRSLRLSCGASGFTFRNYGMQWVRQGPGKGLEWVTLISFDGNDKYYADSVKGRFTISRDNSKNTLFLQMNSLRTEDTAVYYCARGGDFDYWGQGTLVTVSS
VL: DIQMTQSPSSLSASVGDRVTITCRASQDIRKDLGWYQQKPGKAPKRLIYAASSLHSGVPSRFSGSGSGTEFTLTISSLQPEDFATYYCLQHNSYPMYTFGQGTKLEIK
notes: Tested with human IgG1 Fc (H1H); also called HIH6958N2
Which results are given for B1?
IC50 [1]: 5 nM; binding result [2]: binds; IC50 [3]: 5.8 nM; IC50, block of PRL-induced STAT5-luciferase activity (2 nM PRL) [4]: 0.4 nM; binding result [5]: no binding

B2: H1H6958N2 (antibody, V domains shown)
VH: QVQLVESGGGVVQPGRSLRLSCGASGFTFRNYGMQWVRQGPGKGLEWVTLISFDGNDKYYADSVKGRFTISRDNSKNTLFLQMNSLRTEDTAVYYCARGGDFDYWGQGTLVTVSS
VL: DIQMTQSPSSLSASVGDRVTITCRASQDIRKDLGWYQQKPGKAPKRLIYAASSLHSGVPSRFSGSGSGTEFTLTISSLQPEDFATYYCLQHNSYPMYTFGQGTKLEIK
notes: In the H/D exchange experiment the antibody was covalently attached to NHS agarose beads; also called H2M6958N2 (same variable domains, mouse IgG2 Fc); anti-PRLR antibody H1H6958N2
Does B2 bind [6]?
Result: binds

B3: VV6A9-5 (antibody, V domains shown)
VH: EVQLVESGGGLVQPGRSLRLSCAASGFTFDDYALHWVRQAPGKGLEWVSGVSWNGGRIGYADSVKGRFTISRDNAKNSLFLQMNSLRVEDTALYYCAKGRDAFDIWGQGTLVTVSS
VL: DIQMTQSPSSVSASVGDRVTITCRASQGISSWLAWYQQKPGKAPKLLIYAASSLQSGVPSRFSGSGSGTDFTLTISSLQPEDFATYYCQHAYSFPYTFGQGTKLEIK
With B3 as the binder, how does the “Fold Over Background (FACS MFI above isotype control)” value [7] read?
Its value is 7 fold over background.
